# Patent publication US20210238308A1
# Assays:
# Assay in all cases: SPR, Protein L capture
# [1] = target: PRYSPRY domain of human TRIM21 with N-terminal 6xHis tag (human)
# human FcRn (human) = human FcRn (human) (UniProt P55899)
# [2] = target: PRYSPRY domain of mouse TRIM21 with N-terminal 6xHis tag (mouse)
# Sequence of PRYSPRY domain of mouse TRIM21 with N-terminal 6xHis tag (mouse) (chain, as listed by the source limits assumed): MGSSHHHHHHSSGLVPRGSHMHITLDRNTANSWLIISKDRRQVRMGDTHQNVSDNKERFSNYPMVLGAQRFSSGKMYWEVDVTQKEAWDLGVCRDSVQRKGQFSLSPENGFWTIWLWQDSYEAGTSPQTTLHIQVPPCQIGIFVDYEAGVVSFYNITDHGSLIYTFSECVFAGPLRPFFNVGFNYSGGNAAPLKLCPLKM
# Sequence of UniProt P55899 (P55899 24-290 limits assumed, form in doubt, chain 1 of 2): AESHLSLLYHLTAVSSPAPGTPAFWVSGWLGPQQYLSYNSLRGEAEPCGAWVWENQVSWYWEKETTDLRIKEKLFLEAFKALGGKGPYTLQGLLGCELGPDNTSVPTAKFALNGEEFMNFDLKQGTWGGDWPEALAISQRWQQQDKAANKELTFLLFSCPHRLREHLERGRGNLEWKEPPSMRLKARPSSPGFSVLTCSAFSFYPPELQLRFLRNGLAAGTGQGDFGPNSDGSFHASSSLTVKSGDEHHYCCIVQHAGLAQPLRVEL
# Sequence of UniProt P55899 (chain, as listed by the source limits assumed, form in doubt, chain 2 of 2): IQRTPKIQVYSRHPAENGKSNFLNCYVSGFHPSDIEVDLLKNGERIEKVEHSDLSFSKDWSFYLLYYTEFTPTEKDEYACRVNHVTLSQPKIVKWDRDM
# Sequence of PRYSPRY domain of human TRIM21 with N-terminal 6xHis tag (human) (chain, as listed by the source limits assumed): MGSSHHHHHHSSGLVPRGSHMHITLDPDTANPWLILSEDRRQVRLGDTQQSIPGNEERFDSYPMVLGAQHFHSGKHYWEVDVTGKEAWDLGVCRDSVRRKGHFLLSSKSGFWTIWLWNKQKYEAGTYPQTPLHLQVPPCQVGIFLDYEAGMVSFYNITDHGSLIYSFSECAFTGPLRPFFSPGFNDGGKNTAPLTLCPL
Substance,hTRIM21 binding level ratio (variant/control antibody) [1],hFcRn binding level ratio (variant/control antibody) (human FcRn (human)),also measured
MRAH-G1d/MRAL-KT0 E345K (antibody),0.096,–,–
MRAH-G1d/MRAL-KT0 L309Q (antibody),–,0.09,–
MRAH-G1d/MRAL-KT0 L432A (antibody),–,0.08,–
MRAH-G1d/MRAL-KT0 L432R (antibody),0.099,–,–
MRAH-G1d/MRAL-KT0 N434H (antibody),–,–,mTRIM21 binding level ratio (variant/control antibody) [2]: 0.097
